# From paper PMC4051647, “Two Adjacent and Similar TetR Family Transcriptional Regulator Genes, SAV577 and SAV576, Co-Regulate Avermectin Production in Streptomyces avermitilis”
# T1: His6-SAV577 (Streptomyces avermitilis ATCC31267?) (UniProt Q82QD3)
# T1 sequence: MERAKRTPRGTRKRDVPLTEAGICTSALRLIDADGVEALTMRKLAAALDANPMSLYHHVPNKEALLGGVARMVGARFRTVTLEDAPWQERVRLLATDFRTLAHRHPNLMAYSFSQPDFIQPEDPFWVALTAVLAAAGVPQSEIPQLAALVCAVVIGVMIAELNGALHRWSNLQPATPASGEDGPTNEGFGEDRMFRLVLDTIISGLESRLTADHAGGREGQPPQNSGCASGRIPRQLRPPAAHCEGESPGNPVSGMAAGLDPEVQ
# T2: His6-SAV577 (UniProt Q82QD3 1-265)
# T2 sequence: T1 sequence
# B1: probe 6 (dsDNA)
# DNA 1: AGTCGCCATACGCTGTACGGTACCAGCGCCCGCGGCACTGCGG
# DNA 2: CCGCAGTGCCGCGGGCGCTGGTACCGTACAGCGTATGGCGACT
# B2: probe 2 (dsDNA)
# DNA 1: CCCAGGTCTGCCGATTGAGTTTCCATACGTCGTATGGTACTAC
# DNA 2: GTAGTACCATACGACGTATGGAAACTCAATCGGCAGACCTGGG
# Assays:
# [1] = biological target: T1, His6-SAV577 (Streptomyces avermitilis ATCC31267?); assay: EMSA; conditions: EMSA: Roche DIG Gel Shift kit binding buffer, 1 ug poly[d(I-C)] per 20 ul, 25 C 30 min, 5% native PAGE 0.5x TBE; footprinting: 20 mM HEPES pH 7.6, 10 mM …
# His6-SAV577 = biological target: T2, His6-SAV577; assay: EMSA; 0.3 nM probe; EMSA: Roche DIG Gel Shift kit binding buffer, 1 ug poly[d(I-C)] per 20 ul, 25 C 30 min, 5% native PAGE 0.5x TBE; footprinting: 20 mM HEPES pH 7.6, 10 mM (NH4)2SO4, 1 mM DTT, 0.2% Tween-20, 30 mM KCl, 25 C binding; conditions: protein: recombinant; tags: N-terminal His6; chain copies: 2; label: DIG 3'-end; blunt
Molecule,binding [1],binding result (His6-SAV577)
ATATGCCCTGCCGAGGAGACCCTGGCGAACCCGCCTTGCCCGCTCTCGCGGACTGATACCGGCCTGATCGAGCGCGGCATGGAGACGTACGGGCGCCGCCGCGAGGCGGCACACGCGCCTGCTTCTCCGGCGCTGCCGTCAGTCGCCGACGCGCATGGGTGCAGACCCGACCTCCGCGATGCGTACTGGCGGGCAGGGGGATTGGCTGCTCACCGGGATGTAGCCGCGGCCGCCGTCGCGGATCGTGGGTGTCCTCC (double strand) [probe 4],no binding,–
GGTATTCCATTCGGTGTTGCAGCACGCGACCCACTGCGCATCCCACTCGTGAATTGTGGACCGCCATCCGGGGCACGGATGTCTCCAGGAAGGAACTCCTTCACCCTCGCGAACACCACCTCAGAATCCCACGATCATCAGTTAATCATCAAAGTCAGCGACCTTGACACTACCCCGCCCACCAGGGCAAATTCATAACA (double strand) [probe 7],no binding,–
GAAGGCATACAGCGTATGGAAACGGGGCGCTGCCGTACCGGCGCCCCGTCACACCGAATGGCGCCCTGCCCGCCTTTCCCCTTGGAGGAGCCAGCCAT (double strand) [probe 1],binds more weakly,–
GCTCTCGGAATTGTTCGTTCCCTCGCACTACACGTTCGAGATCGGAACGTGAAGACCAGCACGCTCCAGCCCGTTCGGATGCCGTACGTAGTCCGCCATGGCCAAGGGAATGAGCCCCACTCAGGCAGCGCCCTCGTACTCGTCCACGACCAGATGCTTGGACAGCAGCGCCTGAACCGCGTCCGGCGGAAAGTATCAGTGGACGAACG (double strand) [probe 577p],no binding,–
GAAACTCAATCGGCAGACCTGGGGTCGAGAAACAGGAACGTTTCGGCCCATCAGGGACGGCGTCGCTCACGCAGCGGGGTCGCATCAGGATCAGGCGCTGCCGAACGCTCTCCCGGCTGGAGGAGGCGAGGGGAGACCGGTCGCCGCCAGCCGGCGGCTCGACCGGGCCACCGGTGGGTGCGCCCCGGGGAGGACACCCACGATCCGCGACGGCGGCCGCGGCTACATCCCGGTGAGCAGCCAATCCCCCTGCCCGCCAGTACGCATCGCGGAGGT (double strand) [probe 3],no binding,–
B1,–,binds
B2,–,binds
